# Source: publication PMC12881670, “Investigation into ligand selectivity and bias at the formyl peptide receptor family” (The Journal of Pharmacology and Experimental Therapeutics, 2025)
# Where no end group is shown, it is not given here. [ ]: non-standard residue; d: D form.
# T1: FLAG-tagged human FPR2 (Hs_FPR2) (human, UniProt P25090 1-351)
# T1 construct: human formyl peptide receptor 2; also called hFPR2; source: HEK293, stably expressed, on cells; not shown: FLAG, N-terminal, kept
# T1 sequence (looked up): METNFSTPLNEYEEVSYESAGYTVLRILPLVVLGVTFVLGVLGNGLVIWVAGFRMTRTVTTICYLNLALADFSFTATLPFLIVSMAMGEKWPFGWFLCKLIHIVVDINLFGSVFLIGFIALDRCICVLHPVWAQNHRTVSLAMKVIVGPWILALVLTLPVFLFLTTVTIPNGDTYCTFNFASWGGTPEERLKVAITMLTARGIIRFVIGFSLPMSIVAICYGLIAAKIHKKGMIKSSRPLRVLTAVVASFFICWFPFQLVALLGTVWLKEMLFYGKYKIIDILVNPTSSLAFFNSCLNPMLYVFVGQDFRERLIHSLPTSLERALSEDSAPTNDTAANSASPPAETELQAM
# T2: FLAG-tagged mouse Fpr1 (Mm_Fpr1) (mouse, UniProt P33766 1-364)
# T2 construct: mouse formyl peptide receptor 1; cDNA purchased (ThermoFisher); source: HEK293, stably expressed, on cells; not shown: FLAG, N-terminal, kept
# T2 sequence (looked up): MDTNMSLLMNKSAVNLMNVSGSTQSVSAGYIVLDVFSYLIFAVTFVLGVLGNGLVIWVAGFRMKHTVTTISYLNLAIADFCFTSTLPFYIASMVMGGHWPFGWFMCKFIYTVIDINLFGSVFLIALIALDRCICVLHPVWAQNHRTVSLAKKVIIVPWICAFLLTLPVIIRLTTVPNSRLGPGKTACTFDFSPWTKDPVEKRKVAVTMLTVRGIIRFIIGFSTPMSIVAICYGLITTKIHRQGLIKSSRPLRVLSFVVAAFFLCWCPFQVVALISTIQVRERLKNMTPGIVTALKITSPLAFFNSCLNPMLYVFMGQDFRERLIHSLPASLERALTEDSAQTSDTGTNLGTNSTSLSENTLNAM
# T3: FLAG-tagged human FPR1 (Hs_FPR1) (human, UniProt P21462 1-350)
# T3 construct: human formyl peptide receptor 1; cDNA purchased (cDNA.org); source: HEK293, stably expressed, on cells; not shown: FLAG, N-terminal, kept
# T3 sequence (looked up): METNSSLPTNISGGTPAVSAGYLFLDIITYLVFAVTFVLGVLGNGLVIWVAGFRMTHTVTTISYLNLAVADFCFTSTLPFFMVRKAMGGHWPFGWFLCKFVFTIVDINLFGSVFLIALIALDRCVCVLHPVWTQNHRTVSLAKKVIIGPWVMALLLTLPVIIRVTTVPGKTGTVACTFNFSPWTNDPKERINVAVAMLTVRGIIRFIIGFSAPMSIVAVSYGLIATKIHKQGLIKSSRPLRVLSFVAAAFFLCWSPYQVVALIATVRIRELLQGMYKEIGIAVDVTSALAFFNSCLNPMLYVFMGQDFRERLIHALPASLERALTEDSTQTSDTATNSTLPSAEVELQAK
# T4: FLAG-tagged mouse Fpr2 (Mm_Fpr2) (mouse, UniProt O88536 1-351)
# T4 sequence (looked up): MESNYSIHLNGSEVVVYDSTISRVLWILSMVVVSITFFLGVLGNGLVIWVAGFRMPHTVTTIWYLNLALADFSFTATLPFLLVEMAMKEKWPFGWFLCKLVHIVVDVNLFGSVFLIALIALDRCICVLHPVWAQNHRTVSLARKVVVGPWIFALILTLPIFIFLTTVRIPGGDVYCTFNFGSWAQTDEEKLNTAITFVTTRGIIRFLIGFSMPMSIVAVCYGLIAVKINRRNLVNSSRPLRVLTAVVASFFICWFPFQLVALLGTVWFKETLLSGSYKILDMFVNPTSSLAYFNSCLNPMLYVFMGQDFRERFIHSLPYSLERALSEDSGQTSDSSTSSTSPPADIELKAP
# T5: FLAG-Mm_Fpr2 C-terminally fused to Renilla Luciferase 8 (mouse, UniProt O88536 1-351)
# T5 sequence (looked up): T4 sequence (looked up)
# T6: FLAG-Hs_FPR2 C-terminally fused to Renilla Luciferase 8 (human, UniProt P25090 1-351)
# T6 sequence (looked up): T1 sequence (looked up)
# T7: FLAG-Mm_Fpr1 C-terminally fused to Renilla Luciferase 8 (mouse, UniProt P33766 1-364)
# T7 sequence (looked up): T2 sequence (looked up)
# T8: FLAG-Hs_FPR1 C-terminally fused to Renilla Luciferase 8 (human, UniProt P21462 1-350)
# T8 sequence (looked up): T3 sequence (looked up)
# B1: WKYMVm (peptide)
# peptide: WKYMV[dM]
# notes: the last residue is the D form; the bought peptide is probably also an amide (surmise); source: bought: Tocris
# Legend:
# [1] = tested on: FPR1; conditions: at 100 nM; cited from earlier work
# [2] = biological target: T1, FLAG-tagged human FPR2 (Hs_FPR2); assay: flow cytometry on cells; competition binding: HEK293 cells stably expressing the receptor, lifted in PBS, on ice 90 min with 10 nM K(5/6-FAM)-WKYMVm and increasing unlabeled ligand; mean fluorescence of 5000 cells as % of that without competitor; One site-Fit logIC50
# [3] = biological target: T2, FLAG-tagged mouse Fpr1 (Mm_Fpr1); assay: as above
# [4] = biological target: T3, FLAG-tagged human FPR1 (Hs_FPR1); assay: as above
# [5] = biological target: T1, FLAG-tagged human FPR2 (Hs_FPR2); assay: cell-based or functional assay
# [6] = biological target: T2, FLAG-tagged mouse Fpr1 (Mm_Fpr1); assay: cell-based or functional assay
# [7] = biological target: T3, FLAG-tagged human FPR1 (Hs_FPR1); assay: cell-based or functional assay
# [8] = biological target: T4, FLAG-tagged mouse Fpr2 (Mm_Fpr2); assay: cell-based or functional assay
# [9] = biological target: T5, FLAG-Mm_Fpr2 C-terminally fused to …; assay: cell-based or functional assay
# [10] = biological target: T6, FLAG-Hs_FPR2 C-terminally fused to …; assay: cell-based or functional assay
# [11] = biological target: T7, FLAG-Mm_Fpr1 C-terminally fused to …; assay: cell-based or functional assay
# [12] = biological target: T8, FLAG-Hs_FPR1 C-terminally fused to …; assay: cell-based or functional assay
molecule,measurement,setting,value
Cc1cccc(-c2oc(C)nc2C(=O)Nc2cnn(Cc3nc(C(C)(F)F)co3)n2)c1 [ACT-389949],"arrestin recruitment to FPR1, Pathhunter",[1],neither WKYMVM nor ACT-389949 resulted in recruitment
B1,Log IC50,[2],-7.7 log M
same,Max Comp (%),[2],100%
same,Log IC50,[3],-6.79 log M
same,Max Comp (%),[3],97%
same,Log IC50,[4],-7.42 log M
same,Max Comp (%),[4],96.8%
same,ERK1/2 phosphorylation (Western blot): Emax (% of 1 μM WKYMVm),[5],93.8%
same,ERK1/2 phosphorylation (Western blot): Emax (% of 1 μM WKYMVm),[6],102%
same,ERK1/2 phosphorylation (Western blot): Log EC50 (M),[6],-8.43 log M
same,ERK1/2 phosphorylation (Western blot): Emax (% of 1 μM WKYMVm),[7],104%
same,ERK1/2 phosphorylation (Western blot): Log EC50 (M),[7],-9.1 log M
same,ERK1/2 phosphorylation (Western blot): Emax (% of 1 μM WKYMVm),[8],118%
same,ERK1/2 phosphorylation (Western blot): Log EC50 (M),[8],-9.06 log M
same,BRET of receptor-RLuc8 with Arrestin 3-YFP: Emax (% of 1 μM WKYMVm),[9],101%
same,BRET of receptor-RLuc8 with Arrestin 3-YFP: Log EC50 (M),[9],-7.46 log M
same,BRET of receptor-RLuc8 with Arrestin 3-YFP: Emax (% of 1 μM WKYMVm),[10],102%
same,BRET of receptor-RLuc8 with Arrestin 3-YFP: Log EC50 (M),[10],-8.13 log M
same,BRET of receptor-RLuc8 with Arrestin 3-YFP: Emax (% of 1 μM WKYMVm),[11],112%
same,BRET of receptor-RLuc8 with Arrestin 3-YFP: Log EC50 (M),[11],-6.8 log M
same,BRET of receptor-RLuc8 with Arrestin 3-YFP: Emax (% of 1 μM WKYMVm),[12],105%
same,BRET of receptor-RLuc8 with Arrestin 3-YFP: Log EC50 (M),[12],-7.3 log M
